# US20240043489A1, “Cytokine Prodrugs Comprising a Cleavable Linker” (Trutino Biosciences Inc., priority 2020, published 2024)
# Several values for one entry are separate records, joined by “and”; a condition that tells them apart may be missing. Equal values may be shown once. Entries after “also recorded” stand apart in the source; their conditions may differ.
# B1: Construct B: SEQ ID NO 101: m IL2-2x(SG4)-MMPcs1-2x(G4S)-IL2Ralpha-mIgG1 Fc (protein)
# chain: APTSSSTSSSTAEAQQQQQQQQQQQQHLEQLLMDLQELLSRMENYRNLKLPRMLTFKFYLPKQATELKDLQCLEDELGPLRHVLDLTQSKSFQLEDAENFISNIRVTVVKLKGSDNTFECQFDDESATVVDFLRRWIAFCQSIISTSPQSGGGGSGGGGGPLGVRGGGGGSGGGGSELCLYDPPEVPNATFKALSYKNGTILNCECKRGFRRLKELVYMRCLGNSWSSNCQCTSNSHDKSRKQVTAQLEHQKEQQTTTDMQKPTQSMHQENLTGHCREPPPWKHEDSKRIYHFVEGQSVHYECIPGYKALQRGPAISICKMKCGKTGWTQPQLTCVDEREHHRFLASEESQGSRNSSPESETSCPITTTDFPQPTETTAMTETFVLTMEYKGCKPCICTVPEVSSVFIFPPKPKDVLTITLTPKVTCVVVDISKDDPEVQFSWFVDDVEVHTAQTQPREEQFNSTFRSVSELPIMHQDWLNGKEFKCRVNSAAFPAPIEKTISKTKGRPKAPQVYTIPPPKEQMAKDKVSLTCMITDFFPEDITVEWQWNGQPAENYKNTQPIMDTDGSYFVYSKLNVQKSNWEAGNTFTCSVLHEGLHNHHTEKSLSHSPGK
# What was measured:
# [1] = tested on: MC38 tumor; experiment: Systemic IV injection in syngeneic MC38 colorectal cancer model; format: in vivo
# Method: The objective of this study is to evaluate efficacy of Construct B in the MC38-bearing female C57BL/6 mice. For this study, C57BL/6 6-8 weeks old female mice (Jackson Labs) were subcutaneously inoculated with MC38 cells (10^6 cells/animal), and when the average tumor volume reached about 80 mm^3, animals were randomized into 2 groups based on tumor volumes (8 mice per treatment group). Animals were dosed according to the following study design:
# Mice were dosed over a 21 day period then further observed for an additional week.
# [2] = tested on: EMT06; experiment: In vivo efficacy in EMT06 breast syngeneic model; set-up: species or system mice; conditions: EMT06, BALB/c, 20 mpk IV Q3D, D20
# Method: (§1) For the efficacy studies, C57BL/6 or BALB/c mice were subcutaneously inoculated with malignant cells and when the average tumor volume reached on average 90 mm^3, animals were randomized into 2 groups based on tumor volumes (n=10 mice per treatment group). Mice were dosed intravenously every 3 days (Q3D) at 20 mg/kg. Tumors, body weights and clinical observations were measured/collected twice a week for the duration of the study. Tumor volume is shown in FIGS. 10A-D, 11A, 12A, and 13B-C. […] Liver and kidney enzyme results corresponding to FIGS. 11A and 12A are shown in FIGS. 11B-D and 12B-D, respectively.
# [3] = tested on: tumor infiltrating immune cells; experiment: Immune cell populations by immunohistochemistry in MC38 tumor samples; format: in vivo, mice; conditions: MC38 tumors, 10 mg/kg IV Q3D for 21 days
# Method: The objective of this study is to evaluate immune targets in tumor samples by IHC. See below for details: • CD4+Foxp3 double immunofluorescence staining • CD8, CD25, CD3, CD4 and CD335 single IHC staining
# 7 tumor samples were selected from the systemic in vivo efficacy study and formalin-fixed paraffin embedded (FFPE) blocks were prepared following standard embedding process.
# FFPE blocks were sectioned with a manual rotary microtome (4 μm thickness/section) and optimized IHC assay protocols for all the antibodies were used. All stained sections were scanned with NanoZoomer-S60 Image system with 40× magnification. High resolution picture for whole section was generated and further analyzed.
# Scoring Method: All the images were analyzed with HALO™ Image Analysis platform. The whole slide image was analyzed and necrosis area was excluded. The total cells and IHC positive cells were counted. IHC score is presented as the ratio of the positive cell counts against the total cell numbers within whole section and shown in FIG. 8.
# [4] = tested on: B16F10 melanoma; experiment: In vivo efficacy of retention linker IL-2 drugs in B16F10 syngeneic model (Example 17); set-up: species or system mice
# Method: (§2) In a first efficacy study, C57BL/6 mice were subcutaneously inoculated with B16F10 melanoma cells and when the average tumor volume reached on average 70-90 mm^3, animals were randomized into 5 groups based on tumor volumes (n=6 mice per treatment group). Mice were dosed intravenously every 3 days (Q3D) for a total of 5 doses according to following design:
# as §2, with “second” for “first”, “study in the same model,” for “study,”
# On Day 20, mice received an additional dose of drug, animals were sacrificed 24 hrs later and tissues and blood (processed to serum) were collected and stored at −80C for further testing. […] This is most likely due to the higher levels of both circulating drugs in serum and resident drug in TME, which can exert prolonged anti-tumor activity even after an extended dosing holiday.
# [5] = tested on: B16F10; experiment: In vivo efficacy in B16F10 melanoma model (Example 12)
# Method: as §1
# [6] = tested on: CT-26; experiment: In vivo efficacy in CT-26 colorectal syngeneic model; set-up: species or system mice; conditions: CT-26, BALB/c, 20 mpk IV Q3D, D13
# Method: as §1
# [7] = In vitro serum stability of fusion protein (sandwich ELISA); format: in vitro ADME; conditions: 37C up to 72 h; serum of naive and MC38 tumor bearing C57BL/6 mice
# Method: We developed an ELISA assay to detect and quantify fusion proteins comprising IL-2 and IL-2Rα moieties. Wells of a 96-well plate are coated overnight with 100 uL of a rat anti-mouse IL-2 monoclonal antibody (JES6-1A12; ThermoFisher) at […] in PBS. After washing, wells are blocked with TBS/0.05% Tween 20/1% BSA, then fusion proteins and/or unknown biological samples are added for 1 hr at room temperature. After washing, an anti-mouse IL-2Rα biotin-labelled detection antibody (BAF2438, R&D systems) is added and binding is detected using Ultra Strepavidin HRP (ThermoFisher). The ELISA plate was developed by adding the chromogenic tetramethylbenzidine substrate (Ultra TMB, ThermoFisher). The reaction is stopped by addition of 0.5M H2SO4 and the absorbance is read at 450-650 nm.
# Construct B was incubated at 37C for up to 72 h with serum collected from 8 weeks old female C57BL/6 naive and MC38 tumor bearing mice respectively (n=2 per serum type, tumor volume >3000 mm3 at time of collection), in order to examine both non-specific cleavage as well as MMP-specific off-target cleavage. Samples were collected at 0 h, 4 h, 8 h, 24 h, 48 h and 72 h and the intact non-MMP cleaved fusion protein was quantified using an in-house developed sandwich ELISA.
molecule,measurement,setting,value
B1,adverse effect / systemic toxicity,[1]; 10 mpk IV Q3D for 21 D,Essentially no systemic toxicity; also recorded: no adverse effect
same,mouse body weight during treatment,[1]; 10 mpk IV Q3D for 21 D,substantially constant
same,tumor growth (qualitative),"[1]; IV Q3D, eight administrations, vs vehicle",virtually no tumor growth after initiation of treatment
same,inhibition of tumor growth / Max TGI %,"[1]; MC-38, C57BL/6, 10 mpk IV Q3D, Day 21",92%
same,complete tumor regressions ('cures'),"[1]; out of 8 cases, 10 mpk IV Q3D for 21 D",3
same,Max TGI %,[2],43%
same,tumor infiltrating immune cells (IHC score) vs vehicle,[3],Significantly more immune cells of all tested types; also recorded: significant increase in tumor infiltrating immune cells
same,TGI (%) D 15,"[4]; 10 mg/kg IV Q3D, 5 doses",27% and 27.43%
same,efficacy after a dosing holiday of 7 days,"[4]; 10 mg/kg, Day 20",diminished efficacy
same,TGI (%) D 20,"[4]; 10 mg/kg, 7 days following the fifth dose",14.02%
same,TGI (%) D 13,"[4]; 20 mg/kg IV Q3D, 5 doses",61% and 61.43%
same,TGI (%) D 13,"[4]; 40 mg/kg IV Q3D, 5 doses",58.44%
same,TGI,[4]; Construct B treated groups regardless of dose (20 and 40 mg/kg),~60%
same,Max TGI %,"[5]; B16F10, C57BL/6, 20 mpk IV Q3D, D12",49%
same,"signs of toxicity (body weight loss, liver and/or kidney enzymes, clinical observations)","[5]; B16F10 model, 20 mg/kg IV Q3D",no signs of toxicity
same,Max TGI %,[6],46%
same,stability of intact fusion protein in serum,[7],stable
